Columns and labels:
[1] = molecular target: T1, human integrin α11 subunit (human, UniProt Q9UKX5 23-1188); test: immunoprecipitation from C2C12-α11 cell lysate, Western blot detection with the polyclonal α11 antibody (FIG. 1C)
T1 construct: whole, on cells; In C2C12-α11 cells and their lysates the human α11 chain is present as α11β1 heterodimer (the legend says 'Immunoprecipitation of integrin α11β1'); the β1 partner in the mouse cells is not described; In the staining and blot experiments cells were methanol fixed, lysed or the tissue was formalin fixed and paraffin embedded; also called alpha-11 integrin subunit; integrin chain α11
T1 sequence (looked up): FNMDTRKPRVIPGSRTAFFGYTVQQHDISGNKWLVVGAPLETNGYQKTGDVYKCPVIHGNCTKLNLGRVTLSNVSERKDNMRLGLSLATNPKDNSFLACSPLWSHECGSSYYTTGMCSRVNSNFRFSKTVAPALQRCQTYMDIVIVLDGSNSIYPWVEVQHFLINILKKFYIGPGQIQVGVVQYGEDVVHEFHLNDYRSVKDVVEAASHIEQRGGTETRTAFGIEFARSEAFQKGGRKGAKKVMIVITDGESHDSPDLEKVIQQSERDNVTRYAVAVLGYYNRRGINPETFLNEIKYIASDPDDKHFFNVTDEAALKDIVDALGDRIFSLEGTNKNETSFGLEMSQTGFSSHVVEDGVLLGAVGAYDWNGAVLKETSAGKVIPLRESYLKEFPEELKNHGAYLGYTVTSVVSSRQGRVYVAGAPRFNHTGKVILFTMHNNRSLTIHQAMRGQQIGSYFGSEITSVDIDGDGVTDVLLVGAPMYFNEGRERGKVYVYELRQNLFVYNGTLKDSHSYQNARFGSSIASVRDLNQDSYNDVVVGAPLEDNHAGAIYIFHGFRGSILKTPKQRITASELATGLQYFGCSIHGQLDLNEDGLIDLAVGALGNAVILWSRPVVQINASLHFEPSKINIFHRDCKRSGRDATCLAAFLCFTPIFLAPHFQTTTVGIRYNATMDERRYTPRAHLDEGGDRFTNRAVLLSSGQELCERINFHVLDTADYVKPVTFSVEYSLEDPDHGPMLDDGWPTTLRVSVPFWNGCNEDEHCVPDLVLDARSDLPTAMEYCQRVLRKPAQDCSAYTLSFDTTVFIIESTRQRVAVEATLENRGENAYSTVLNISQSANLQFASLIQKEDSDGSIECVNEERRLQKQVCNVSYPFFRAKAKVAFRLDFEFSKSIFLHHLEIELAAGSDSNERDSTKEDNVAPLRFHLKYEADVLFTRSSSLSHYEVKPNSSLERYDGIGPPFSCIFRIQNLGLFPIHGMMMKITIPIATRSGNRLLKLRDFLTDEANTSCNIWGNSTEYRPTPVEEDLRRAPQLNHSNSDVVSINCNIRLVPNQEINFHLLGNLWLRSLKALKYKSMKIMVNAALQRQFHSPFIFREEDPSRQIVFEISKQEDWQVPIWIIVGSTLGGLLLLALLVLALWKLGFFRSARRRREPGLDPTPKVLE
Procedure: FIG. 1. Immunological characterization of 210F4B6A4 mAb [0019] A-B. C2C12 mouse myoblast cells expressing human integrin α11-EGFP or WT (wildtype) C2C12 cells were stained with 210F4B6A4 mAb for 1 hour at 4° C. Cells were then washed and stained with goat anti-mouse R-Phycoerythrin IgG. Samples were analysed by flow cytometry using Intellicyt iQue and fluorescence intensity was measured. [0020] C. Immunoprecipitation (IP) of integrin α11β1 with the 210F4B6A4 mAb and the polyclonal α11 antibody (α11 pAb)[5]. Protein bands of integrin chain α11 at the expected size after immunoprecipitation using α11 antibodies followed by Western blotting and detection using the polyclonal α11 antibody. [0021] D. Western-blotting (WB) using the α11 210F4B6A4 mAb on C2C12-hu α11-EGFP lysate, shown is the protein band of expected size of aα11-EGFP (180 kDa). [0022] E. C2C12 mouse myoblast cells expressing human integrin α11 were allowed to attach on collagen I-cocated coverslips for 2 hours, cell were then fixed with methanol and incubated with 210F4B6A4 mAb or control IgG. Bound antibody was detected using goat anti-mouse Alexa Fluor 594. Integrin α11 staining in cell focal adhesions is indicated by white arrowheads. […]

human integrin α11-EGFP = molecular target: T2, human integrin α11-EGFP (human, UniProt Q9UKX5 23-1188); test: Western blot on C2C12-hu α11-EGFP lysate (FIG. 1D)
T2 construct: whole, on cells; Fusion of about 180 kDa by the legend; In the Western blot it stood as denatured protein from cell lysate; also called hu α11-EGFP; C2C12-hu α11-EGFP; not shown: EGFP tag
T2 sequence (looked up): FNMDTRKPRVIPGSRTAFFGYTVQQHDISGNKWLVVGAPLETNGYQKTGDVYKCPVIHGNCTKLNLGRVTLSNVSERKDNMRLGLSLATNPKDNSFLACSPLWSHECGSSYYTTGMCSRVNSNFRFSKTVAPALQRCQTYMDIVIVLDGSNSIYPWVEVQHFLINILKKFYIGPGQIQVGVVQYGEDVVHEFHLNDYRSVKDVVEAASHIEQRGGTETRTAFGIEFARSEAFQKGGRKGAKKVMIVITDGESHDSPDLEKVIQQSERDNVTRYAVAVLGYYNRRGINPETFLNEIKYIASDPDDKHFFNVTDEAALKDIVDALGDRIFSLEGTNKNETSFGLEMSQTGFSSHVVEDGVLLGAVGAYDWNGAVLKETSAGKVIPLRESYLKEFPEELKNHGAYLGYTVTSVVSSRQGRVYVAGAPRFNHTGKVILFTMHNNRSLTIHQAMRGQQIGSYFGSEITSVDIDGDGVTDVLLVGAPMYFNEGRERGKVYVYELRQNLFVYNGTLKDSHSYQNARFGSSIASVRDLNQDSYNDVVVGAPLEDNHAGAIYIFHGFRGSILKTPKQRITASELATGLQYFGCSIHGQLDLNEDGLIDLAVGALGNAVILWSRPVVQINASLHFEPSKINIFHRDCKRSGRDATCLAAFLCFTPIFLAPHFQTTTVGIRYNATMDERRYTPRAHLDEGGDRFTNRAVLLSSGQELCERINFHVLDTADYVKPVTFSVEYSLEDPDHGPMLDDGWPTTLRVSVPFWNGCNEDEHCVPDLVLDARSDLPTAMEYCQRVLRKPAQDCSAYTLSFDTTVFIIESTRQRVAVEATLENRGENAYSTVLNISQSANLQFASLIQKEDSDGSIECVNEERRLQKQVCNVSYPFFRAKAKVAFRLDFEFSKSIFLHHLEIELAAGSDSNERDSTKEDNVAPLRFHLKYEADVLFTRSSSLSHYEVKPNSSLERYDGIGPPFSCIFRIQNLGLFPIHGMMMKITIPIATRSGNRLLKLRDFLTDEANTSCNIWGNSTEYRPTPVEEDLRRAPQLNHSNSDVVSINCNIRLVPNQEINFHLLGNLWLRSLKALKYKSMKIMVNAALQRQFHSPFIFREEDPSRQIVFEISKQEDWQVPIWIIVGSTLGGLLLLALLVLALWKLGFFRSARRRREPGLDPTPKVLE

binding result [1]: binds | binding result (human integrin α11-EGFP): binds
B1: monoclonal mouse anti-human integrin alpha-11 antibody clone 210 F4B6A4 produced by the hybridoma deposited as DSM ACC3320 (antibody, V domains shown)
VH: EVQLQQSGAELVRPGASVKVSCTASGFNIKDDYIHWMRRRPAQGLEWIGWIDPENGDTEYASNFQGKATTTVDVSSNTAYLQLSRLTSEDTAIYYCSREYAYWGQGTLVTVSA
VL: DVVMTQTPLSLPVSLGDQASISCRSSQSLLYSNGNTYLQWYLQKPGQSPKLLIYRASNRFSGVPDRFSGSGSGTDFTLKISRVEAEDLGVYFCSQSTHVPWTFGGGTKLEIK
notes: Mouse monoclonal antibody from hybridoma (used partly as hybridoma supernatant); also called 210F4B6A4 mAb; F210F4B6A4

Source: patent publication US20210047418A1 (VESTLANDETS INNOVASJONSSELSKAP, published 2021)
